T1: GII.4/New Orleans VLP (norovirus Hu/GII.4/New …, UniProt P54635 1-539)
T1 construct: also called Hu/GII.4/New Orleans1805/2009/USA
T1 chain: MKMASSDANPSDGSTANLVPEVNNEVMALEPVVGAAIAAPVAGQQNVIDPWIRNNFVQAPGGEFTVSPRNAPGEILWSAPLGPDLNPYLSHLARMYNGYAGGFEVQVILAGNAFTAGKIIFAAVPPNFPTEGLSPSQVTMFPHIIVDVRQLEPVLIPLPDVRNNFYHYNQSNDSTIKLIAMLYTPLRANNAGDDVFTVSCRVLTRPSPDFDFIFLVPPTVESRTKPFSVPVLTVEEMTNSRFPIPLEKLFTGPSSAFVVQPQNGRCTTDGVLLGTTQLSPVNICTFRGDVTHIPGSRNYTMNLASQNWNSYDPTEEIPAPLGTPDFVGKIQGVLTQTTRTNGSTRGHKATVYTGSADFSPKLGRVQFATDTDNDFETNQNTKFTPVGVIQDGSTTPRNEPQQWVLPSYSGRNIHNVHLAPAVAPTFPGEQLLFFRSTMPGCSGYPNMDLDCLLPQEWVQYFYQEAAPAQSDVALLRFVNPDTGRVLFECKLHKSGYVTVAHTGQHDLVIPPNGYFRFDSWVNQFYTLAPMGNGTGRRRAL

T2: GII.4/Yerseke VLP (norovirus Hu/GII.4/Yerseke38/2006/NL, UniProt P54635 1-539)
T2 construct: also called Hu/GII.4/Yerseke38/2006/NL
T2 chain: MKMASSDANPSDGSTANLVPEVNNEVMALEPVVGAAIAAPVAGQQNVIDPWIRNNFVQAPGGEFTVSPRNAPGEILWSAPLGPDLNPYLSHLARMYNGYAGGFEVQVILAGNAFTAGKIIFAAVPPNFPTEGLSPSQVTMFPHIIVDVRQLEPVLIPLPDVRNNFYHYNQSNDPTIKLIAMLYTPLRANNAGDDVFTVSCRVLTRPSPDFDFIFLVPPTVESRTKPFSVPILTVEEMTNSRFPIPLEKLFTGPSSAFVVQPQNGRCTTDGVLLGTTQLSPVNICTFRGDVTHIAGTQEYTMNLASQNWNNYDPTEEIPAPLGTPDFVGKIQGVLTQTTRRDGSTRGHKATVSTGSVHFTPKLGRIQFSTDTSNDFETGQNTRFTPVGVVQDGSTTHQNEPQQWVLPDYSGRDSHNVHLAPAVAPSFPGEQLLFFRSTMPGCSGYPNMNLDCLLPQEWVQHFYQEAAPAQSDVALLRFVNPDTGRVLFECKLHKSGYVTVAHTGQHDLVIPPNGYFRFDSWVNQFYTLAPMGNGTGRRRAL

T3: GII.4/Sydney VLP (norovirus …, UniProt P54635 1-538)
T3 construct: also called Hu/GII.4/Sydney/NSW0514/2012/AU
T3 chain: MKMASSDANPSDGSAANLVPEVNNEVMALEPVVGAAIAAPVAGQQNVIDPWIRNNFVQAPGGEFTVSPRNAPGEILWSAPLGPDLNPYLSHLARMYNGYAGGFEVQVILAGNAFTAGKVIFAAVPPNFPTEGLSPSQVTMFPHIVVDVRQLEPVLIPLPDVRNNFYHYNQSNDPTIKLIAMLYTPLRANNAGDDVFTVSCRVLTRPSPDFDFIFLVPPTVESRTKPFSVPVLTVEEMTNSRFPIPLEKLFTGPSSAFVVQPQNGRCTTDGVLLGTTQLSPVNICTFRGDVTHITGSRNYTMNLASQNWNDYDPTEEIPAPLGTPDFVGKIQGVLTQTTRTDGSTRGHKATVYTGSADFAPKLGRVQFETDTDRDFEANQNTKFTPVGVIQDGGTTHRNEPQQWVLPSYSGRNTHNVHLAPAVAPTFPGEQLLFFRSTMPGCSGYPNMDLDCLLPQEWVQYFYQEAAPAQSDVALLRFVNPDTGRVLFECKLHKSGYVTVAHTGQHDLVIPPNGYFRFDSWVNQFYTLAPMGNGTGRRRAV

T4: GII.3 VLP (norovirus Hu/GII.3/NIHIC8.1/2011/USA)
T4 construct: also called Hu/GII.3/NIHIC8.1/2011/USA
T4 chain: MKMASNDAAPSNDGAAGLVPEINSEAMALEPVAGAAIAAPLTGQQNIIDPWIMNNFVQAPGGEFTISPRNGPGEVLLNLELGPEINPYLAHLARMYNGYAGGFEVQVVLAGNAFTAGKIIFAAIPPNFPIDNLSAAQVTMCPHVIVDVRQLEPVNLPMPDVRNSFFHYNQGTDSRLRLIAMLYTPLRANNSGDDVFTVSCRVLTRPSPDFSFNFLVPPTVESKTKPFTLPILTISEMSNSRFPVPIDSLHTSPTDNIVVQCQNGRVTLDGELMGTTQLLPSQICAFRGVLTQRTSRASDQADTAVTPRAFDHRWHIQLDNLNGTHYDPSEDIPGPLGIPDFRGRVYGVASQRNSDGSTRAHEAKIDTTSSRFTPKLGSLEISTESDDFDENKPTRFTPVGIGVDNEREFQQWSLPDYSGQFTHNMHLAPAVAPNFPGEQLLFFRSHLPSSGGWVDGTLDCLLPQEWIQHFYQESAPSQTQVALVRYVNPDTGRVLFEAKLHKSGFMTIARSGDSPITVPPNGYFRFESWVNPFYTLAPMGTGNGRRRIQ

T5: GII.6 VLP (norovirus Hu/GII.6/Ehime120246/2012/JP)
T5 construct: also called Hu/GII.6/Ehime120246/2012/JP
T5 chain: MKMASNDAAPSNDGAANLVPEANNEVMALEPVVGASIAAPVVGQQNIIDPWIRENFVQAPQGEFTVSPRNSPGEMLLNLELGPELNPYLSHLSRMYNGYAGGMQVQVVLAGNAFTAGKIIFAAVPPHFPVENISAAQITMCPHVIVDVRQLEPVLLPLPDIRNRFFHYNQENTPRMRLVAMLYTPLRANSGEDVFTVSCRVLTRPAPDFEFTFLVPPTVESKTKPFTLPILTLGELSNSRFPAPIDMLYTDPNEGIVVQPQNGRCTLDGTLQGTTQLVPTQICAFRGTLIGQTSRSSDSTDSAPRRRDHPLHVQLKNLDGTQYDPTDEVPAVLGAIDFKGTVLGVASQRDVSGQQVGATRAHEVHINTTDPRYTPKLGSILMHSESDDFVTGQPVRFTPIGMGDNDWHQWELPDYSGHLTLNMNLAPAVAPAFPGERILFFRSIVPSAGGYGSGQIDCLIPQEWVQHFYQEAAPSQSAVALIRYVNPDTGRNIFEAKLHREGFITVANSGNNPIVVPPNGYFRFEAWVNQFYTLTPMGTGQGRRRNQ


Columns and labels:
Test in all cases: multiplex microsphere immunoassay
GII.4/New Orleans VLP = target: T1, GII.4/New Orleans VLP
GII.4/Yerseke VLP = target: T2, GII.4/Yerseke VLP
GII.4/Sydney VLP = target: T3, GII.4/Sydney VLP
GII.3 VLP = target: T4, GII.3 VLP
GII.6 VLP = target: T5, GII.6 VLP

| Binder | EC50 (GII.4/New Orleans VLP) | EC50 (GII.4/Yerseke VLP) | EC50 (GII.4/Sydney VLP) | binding result (GII.3 VLP) | binding result (GII.6 VLP) | EC50 (GII.3 VLP) | EC50 (GII.6 VLP) |
| --- | --- | --- | --- | --- | --- | --- | --- |
| human mAb 1431 (antibody, V domains shown, also called A1431) VH: QVQLVQSGGGLVQPGGSLRLSCAASGFAFSNHGMHWVRQAPGKGLEWLSYISGSTGAIHYANSVKGRFTISRDNARNSLDLQMNSLGDEDTAVYYCARDGPRPDGTGYAGPSNDYWGQGTLVSVSS VL: EIVLTQSPASLSLSPGERATLSCKASRSISIYLAWYQQKPGQAPRLLIYDASYRAIGIPARFSGSGSGTDFTLTISNLEPEDFAVYYCQHRSSWPALTFGGGTKVEI | 18 ng/mL | 7 ng/mL | 26 ng/mL | no binding | no binding |  |  |
| human mAb 1227 (antibody, V domains shown, also called A1227) VH: QVQLVQSGGGMVQPGGSLSLSCAASGFTLSNYAMTWVRQAPGKGLEWVSSIGGSGGTTYYADSVKGRFTISRDSSMNTLYLQMSNLRAGDTAVYYCAKDKTRTLRLGYSGMDVWGQGTTVTVSS VL: DIRLTQSPSSLSASVGDRVTITCRASQSISSYLNWYQQKPGKAPDLLIYGASSLQSGVPSRFSGSGSGTDFTLTISSLQPEDFGNYYCQQSFSTPRTFGQGTKVEL | 7 ng/mL | 2 ng/mL | 12 ng/mL |  |  | 6 ng/mL | 71 ng/mL |

Source: patent publication US20240402174A1 (Takeda / Millennium, published 2024)
